Results published in patent US20190300618A1 (Merck Sharp & Dohme, published 2019).

Tests used:
E9A = assay: flow cytometry, CHO-K1; sub-column 1 of 2
I46A = assay: flow cytometry, CHO-K1; sub-column 1 of 2
Q41A = assay: flow cytometry, CHO-K1; sub-column 1 of 2
F28A = assay: flow cytometry, CHO-K1; sub-column 1 of 2
K38A = assay: flow cytometry, CHO-K1; sub-column 1 of 2
D43A = assay: flow cytometry, CHO-K1; sub-column 1 of 2
R37A = assay: flow cytometry, CHO-K1; sub-column 1 of 2
R87A [1] = assay: flow cytometry, CHO-K1; sub-column 1 of 2
Q91A [2] = assay: flow cytometry, CHO-K1; sub-column 1 of 2
V49A = assay: flow cytometry, CHO-K1; sub-column 1 of 2
G89A = assay: flow cytometry, CHO-K1; sub-column 1 of 2
N88A = assay: flow cytometry, CHO-K1; sub-column 1 of 2
W13A [3] = assay: flow cytometry, CHO-K1; sub-column 1 of 2
Q15A = assay: flow cytometry, CHO-K1; sub-column 1 of 2
D32A = assay: flow cytometry, CHO-K1; sub-column 1 of 2
H60A = assay: flow cytometry, CHO-K1; sub-column 1 of 2
P44A = assay: flow cytometry, CHO-K1; sub-column 1 of 2
V30A = assay: flow cytometry, CHO-K1; sub-column 1 of 2
K17A = assay: flow cytometry, CHO-K1; sub-column 1 of 2
W90A = assay: flow cytometry, CHO-K1; sub-column 1 of 2
[4] = molecular target: Macaca mulatta CD27 (mmCD27), expressed on cells (Macaca mulatta (rhesus); same entry given for cynomolgus monkey); assay: flow cytometry MFI on CD4+ T cells from rhesus peripheral blood
[5] = molecular target: Macaca mulatta CD27 (mmCD27), expressed on cells (Macaca mulatta (rhesus); same entry given for cynomolgus monkey); assay: flow cytometry MFI on CD8+ T cells from rhesus peripheral blood
Target sequence in this assay (chain, as listed by the source): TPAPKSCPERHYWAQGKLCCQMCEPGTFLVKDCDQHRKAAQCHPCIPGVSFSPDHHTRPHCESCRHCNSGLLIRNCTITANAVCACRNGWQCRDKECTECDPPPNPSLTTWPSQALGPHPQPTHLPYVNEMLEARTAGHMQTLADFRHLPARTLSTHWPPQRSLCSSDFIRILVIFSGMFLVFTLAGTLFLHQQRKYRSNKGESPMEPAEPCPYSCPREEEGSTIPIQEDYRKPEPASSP

[6] = molecular target: human CD27 (wild type), expressed on cells (human) (UniProt P26842); assay: cell-based or functional assay
[7] = molecular target: human CD27 (A59T), expressed on cells (human) (UniProt P26842); assay: cell-based or functional assay
G16A = molecular target: T1, G16A; assay: flow cytometry, CHO-K1; single column;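 also: CHO-K1 cells transiently transfected with hCD27 alanine mutant constructs, anti-hCD27 antibody binding measured by flow cytometry, 30 min at 4 °C, wild-type hCD27 binding taken as 100%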
T1 construct: also called hCD27 G16A
T1 receptor: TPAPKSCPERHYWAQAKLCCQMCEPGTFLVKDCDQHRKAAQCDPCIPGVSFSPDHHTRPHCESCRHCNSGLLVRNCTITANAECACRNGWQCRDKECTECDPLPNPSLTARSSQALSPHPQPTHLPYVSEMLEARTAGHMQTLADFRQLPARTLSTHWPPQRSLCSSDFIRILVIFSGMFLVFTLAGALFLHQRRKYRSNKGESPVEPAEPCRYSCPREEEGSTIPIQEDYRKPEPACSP
Protocol: (§1) The ability of several anti-hCD27 antibodies to bind to a series of hCD27 alanine mutants was determined using CHO-K1 cells, transiently transfected pCI-neo empty vector, pCI-neo.hCD27 and several pCI-neo.CD27Ala mutant constructs.
(§2) Detached cells were transferred to 96 wells round-bottomed well plates at approximately 1.2×10⁵ cells/well. After spinning down the cells, discarding the supernatants and re-suspending the cells in the residual volume, the primary antibodies were added and incubated for 30 minutes at 4° C. Cells were washed three times with DPBS/BSA 1%, followed by centrifugation, discarding of the supernatants and re-suspension in the residual volume. […] After washing once, antibody binding was detected using the HTS plate reader (FACS Canto II) and FlowJo software for data analysis. Debris, dead cells and doublets were excluded from the analysis. Binding was expressed as the geometric mean of the FITC signal, relative to antibody binding to hCD27, which was set at 100%.

R87A [8] = molecular target: T2, R87A; assay: flow cytometry, CHO-K1; single column;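 also: CHO-K1 cells transiently transfected with hCD27 alanine mutant constructs, anti-hCD27 antibody binding measured by flow cytometry, 30 min at 4 °C, wild-type hCD27 binding taken as 100%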
T2 construct: also called hCD27 R87A
T2 receptor: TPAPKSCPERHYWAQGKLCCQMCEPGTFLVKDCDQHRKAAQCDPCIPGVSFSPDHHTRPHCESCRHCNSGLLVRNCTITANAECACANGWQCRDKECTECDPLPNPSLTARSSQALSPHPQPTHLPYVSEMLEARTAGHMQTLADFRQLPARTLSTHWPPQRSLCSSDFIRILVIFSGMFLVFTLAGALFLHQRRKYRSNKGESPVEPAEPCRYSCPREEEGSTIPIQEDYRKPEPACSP
Protocol: as §1, §2

Q91A [9] = molecular target: T3, Q91A; assay: flow cytometry, CHO-K1; single column;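 also: CHO-K1 cells transiently transfected with hCD27 alanine mutant constructs, anti-hCD27 antibody binding measured by flow cytometry, 30 min at 4 °C, wild-type hCD27 binding taken as 100%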
T3 construct: also called hCD27 Q91A
T3 receptor: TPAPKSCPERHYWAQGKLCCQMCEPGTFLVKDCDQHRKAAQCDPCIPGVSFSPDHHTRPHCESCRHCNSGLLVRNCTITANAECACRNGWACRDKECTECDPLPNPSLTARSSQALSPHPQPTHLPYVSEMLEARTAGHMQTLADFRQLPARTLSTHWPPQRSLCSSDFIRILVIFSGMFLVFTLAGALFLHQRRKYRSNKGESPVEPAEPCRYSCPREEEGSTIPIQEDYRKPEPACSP
Protocol: as §1, §2

H36A = molecular target: T4, H36A; assay: flow cytometry, CHO-K1; single column;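 also: CHO-K1 cells transiently transfected with hCD27 alanine mutant constructs, anti-hCD27 antibody binding measured by flow cytometry, 30 min at 4 °C, wild-type hCD27 binding taken as 100%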
T4 construct: also called hCD27 H36A
T4 receptor: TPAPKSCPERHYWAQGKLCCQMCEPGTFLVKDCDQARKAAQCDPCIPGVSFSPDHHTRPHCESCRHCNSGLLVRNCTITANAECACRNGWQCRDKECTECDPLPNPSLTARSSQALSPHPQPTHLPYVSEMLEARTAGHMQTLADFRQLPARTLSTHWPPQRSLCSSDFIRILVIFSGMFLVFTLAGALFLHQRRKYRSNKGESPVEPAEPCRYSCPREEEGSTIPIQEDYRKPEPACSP
Protocol: as §1, §2

W13A [10] = molecular target: T5, W13A; assay: flow cytometry, CHO-K1; single column
T5 construct: also called hCD27 W13A
T5 receptor: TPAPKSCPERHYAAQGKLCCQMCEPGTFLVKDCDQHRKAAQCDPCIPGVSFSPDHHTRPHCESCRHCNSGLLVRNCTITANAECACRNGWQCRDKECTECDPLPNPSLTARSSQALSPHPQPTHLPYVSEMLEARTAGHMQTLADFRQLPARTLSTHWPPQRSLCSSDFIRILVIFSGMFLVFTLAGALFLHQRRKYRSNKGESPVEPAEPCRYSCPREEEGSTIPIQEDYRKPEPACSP
Protocol: as §1, §2

Molecule 1F5 hIgG1 (antibody) has a % of WT hCD27 binding (geo mean FITC) (E9A) of 95.4%, a % of WT hCD27 binding (geo mean FITC) (I46A) of 128% and a % of WT hCD27 binding (geo mean FITC) (Q41A) of 104%. For the same molecule, the % of WT hCD27 binding (geo mean FITC) (F28A) was 113%, the % of WT hCD27 binding (geo mean FITC) (K38A) was 96.5% and the % of WT hCD27 binding (geo mean FITC) (D43A) was 202%. The % of WT hCD27 binding (geo mean FITC) (R37A) was 109%, the % of WT hCD27 binding (geo mean FITC) (R87A [1]) was 40.8% and the % of WT hCD27 binding (geo mean FITC) (Q91A [2]) was 156%. For the same molecule, the % of WT hCD27 binding (geo mean FITC) (V49A) was 143%, the % of WT hCD27 binding (geo mean FITC) (G89A) was 103% and the % of WT hCD27 binding (geo mean FITC) (N88A) was 153%. For the same molecule, the % of WT hCD27 binding (geo mean FITC) (W13A [3]) was 89.5%, the % of WT hCD27 binding (geo mean FITC) (Q15A) was 99% and the % of WT hCD27 binding (geo mean FITC) (D32A) was 115%. For the same molecule, the % of WT hCD27 binding (geo mean FITC) (H60A) was 176%, the % of WT hCD27 binding (geo mean FITC) (P44A) was 150% and the % of WT hCD27 binding (geo mean FITC) (V30A) was 171%. For the same molecule, the % of WT hCD27 binding (geo mean FITC) (K17A) was 95.1%, the % of WT hCD27 binding (geo mean FITC) (W90A) was 42.5% and the EC50 [4] was 1.58 nM. It also gave an EC50 [5] of 1.92 nM, an Emax (fold change), NF-κB-luciferase reporter assay [6] of 1.48 fold change and a Fold Change values at 2.5 µg/ml, NF-κB-luciferase reporter assay [6] of 1.34 fold change. It also gave an NF-κB luciferase activity, 10 µg/ml fold change (FIG. 7A) [6] of 2.23 fold change, an NF-κB luciferase activity, 10 µg/ml fold change (FIG. 7B) [6] of 1.73 fold change and an Emax (fold change), NF-κB-luciferase reporter assay [7] of 1.3 fold change. For the same molecule, the Fold Change values at 2.5 µg/ml, NF-κB-luciferase reporter assay [7] was 1.23 fold change.

B1: hCD27.15-6B (humanized hCD27.15, human IgG4, Clone 6B) (antibody, V domains shown)
VH: QVQLVQSGAEVKKPGASVKVSCKASGFIIKATYMHWVRQAPGQRLEWMGRIDPANGETKYDPKFQVRVTITADTSASTAYMELSSLRSEDTAVYYCARYAWYFDVWGQGTLVTVSS
VL: DIQMTQSPSSLSASVGDRVTITCRASENIYSFLAWYQQKPGKAPKLLIYHAKTLAEGVTSRFSGSGSGTDFTLTISSLQPEDSATYYCQHYYGSPLTFGQGTRLEIKR
notes: humanized version of hCD27.15 from WO2012/004367 with identical CDR regions; also called hCD27.15 (humanized 6B); hCD27.15 6B humanized antibody
B1 was tested, and the “% of WT hCD27 binding (geo mean FITC)” value (G16A) was 141%, the “% of WT hCD27 binding (geo mean FITC)” value (R87A [8]) was 114% and the “% of WT hCD27 binding (geo mean FITC)” value (Q91A [9]) was 136%. The “% of WT hCD27 binding (geo mean FITC)” value (H36A) was 122% and the “% of WT hCD27 binding (geo mean FITC)” value (W13A [10]) was 71.4%.
